Data on two molecules can be found in patent US20260185118A1 (priority 2023, published 2026).

Series [1] concerns CsMYC2. The series is classed as binding, Citrus sinensis. The settings on record: yeast AH109, SD-Leu-Trp-His with 5 mM 3-AT.
The subject of another series is CsPUB21. The series is classed as biochemical, Citrus sinensis. The settings on record: in the presence of E1 (AtUBA1) and E2 (AtUBC8), anti-c-myc immunoblot. A general note: A western blot detects proteins with antibodies after separation by electrophoresis.
Series [2] deals with Diaphorina citri Kuwayama. The series is classed as in vivo. The settings on record: overexpressing leaves versus blank vector control leaves, 100 psyllids starved 2 h, counted after 40 min.
Series [3] deals with CsMYC2. The series is classed as cell-based, Citrus sinensis. The settings on record: tobacco leaves, 2-3 days, cytoplasm and nucleus.
The test system of series [4] is CsMYC2. The series is classed as biochemical, Citrus sinensis. The settings on record: with AtUBA1, AtUBC8 and ubiquitin, anti-MBP immunoblot.
The next series deals with CsMYC2 protein. The series is classed as cell-based, Citrus sinensis. The settings on record: tobacco leaves, 35S:CsMYC2-myc co-injected, versus 35S:YFP.

B1: CsPUB21DN (protein)
chain: MILSWKRLRGGRGRRAGKKQPGVESGGEMELTTPNHFRAPISLDLMKDPVTLSTGITYDRENIEKWIHEDGNITCPVTNRVLTSFEPIPNHTIRRMIQDWCVENRSYGIERIPTPRIPVSSVEVFEINCNITTACKSEDQAGCRDLVAKIKKWTKESDRNKRCIVDNGAVSVLAEAFETFSKTCLDENVSVLEEILSTLTLLFPLAGEGLTYLGSASSMRCMVWFLKSGDLSRRRNAVLVLREIVSSDHRKVNVLLDIEGAIEPLFKLIKEPICPTATKASLVVVYRTITSASATEKPIQKFVDMGLVSLLLEMLVDAQRSLCEKALSVLDGLCSSDYGRGDAYNNSLIFPVIVKKILRVSDLATEFAVSILWKLCKNEEREEKTAFAEALQVGAFQKLLLLLQVGCADKTKEHVSELLKLLNPHRARLECIDSMDFKDLKRPF
modifications: left off: large carriers
In the case of B1, the “interaction with CsMYC2 (yeast two-hybrid)” value with CsMYC2 [1] is “does not affect the interaction with CsMYC2”. Moreover, the “E3 ubiquitin ligase activity (auto-ubiquitination)” value in the series with CsPUB21 is on record as “does not show ubiquitination activity”. Further, the “Diaphorina citri Kuwayama attracted by leaves of transgenic citrus” value in series [2] is given as “about 40%”. The “interaction with CsMYC2 (BiFC)” value with CsMYC2 [3] is recorded as “does not affect the interaction with CsMYC2”. Besides, the “polyubiquitination of the CsMYC2 protein in vitro” value with CsMYC2 [4] is reported as “cannot ubiquitinate CsMYC2”. Also, the “accumulated level of the CsMYC2 protein on coexpression” value in the series on CsMYC2 protein is listed as “this reduction was inhibited”.

B2: CsPUB21: citrus plant U-box E3 ubiquitin ligase protein, amino acid sequence SEQ ID No. 1; overexpressed in citrus (protein)
chain: MILSWKRLRGGRGRRAGKKQPGVESGGEMELTTPNHFRCPISLDLMKDPVTLSTGITYDRENIEKWIHEDGNITCPVTNRVLTSFEPIPNHTIRRMIQDWCVENRSYGIERIPTPRIPVSSVEVFEINCNITTACKSEDQAGCRDLVAKIKKWTKESDRNKRCIVDNGAVSVLAEAFETFSKTCLDENVSVLEEILSTLTLLFPLAGEGLTYLGSASSMRCMVWFLKSGDLSRRRNAVLVLREIVSSDHRKVNVLLDIEGAIEPLFKLIKEPICPTATKASLVVVYRTITSASATEKPIQKFVDMGLVSLLLEMLVDAQRSLCEKALSVLDGLCSSDYGRGDAYNNSLIFPVIVKKILRVSDLATEFAVSILWKLCKNEEREEKTAFAEALQVGAFQKLLLLLQVGCADKTKEHVSELLKLLNPHRARLECIDSMDFKDLKRPF
Turning to B2, the “Diaphorina citri Kuwayama attracted by leaves of transgenic citrus” value in series [2] stood at 63.5%.
